Like-named read-outs stand apart in the source and are kept apart here.
Columns and labels:
[1] = biological target: T1, CD30 on CD30-expressing tumor cell lines (HH, MJ, H9) (UniProt P28908 19-595); assay: cell-based or functional assay
T1 sequence (looked up): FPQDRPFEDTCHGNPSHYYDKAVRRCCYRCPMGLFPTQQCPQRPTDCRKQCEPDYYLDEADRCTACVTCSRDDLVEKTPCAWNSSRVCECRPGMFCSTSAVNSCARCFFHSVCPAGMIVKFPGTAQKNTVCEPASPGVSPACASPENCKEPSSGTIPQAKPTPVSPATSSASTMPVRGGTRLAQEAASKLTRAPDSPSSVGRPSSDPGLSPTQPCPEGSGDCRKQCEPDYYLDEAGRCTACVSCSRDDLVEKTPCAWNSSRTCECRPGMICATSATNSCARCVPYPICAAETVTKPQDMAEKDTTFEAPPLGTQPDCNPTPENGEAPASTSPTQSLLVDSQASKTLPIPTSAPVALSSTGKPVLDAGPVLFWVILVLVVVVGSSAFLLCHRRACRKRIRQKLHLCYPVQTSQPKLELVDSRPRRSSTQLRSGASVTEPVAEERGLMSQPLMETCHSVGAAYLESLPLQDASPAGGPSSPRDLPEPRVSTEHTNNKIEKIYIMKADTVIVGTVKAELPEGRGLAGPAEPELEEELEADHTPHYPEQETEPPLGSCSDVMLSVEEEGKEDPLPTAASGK

[2] = biological target: T1, CD30 on CD30-expressing tumor cell …; assay: cell-based or functional assay; remark: listed apart in the source
[3] = biological target: T1, CD30 on CD30-expressing tumor cell …; assay: cell-based or functional assay; remark: listed apart in the source
[4] = biological target: T1, CD30 on CD30-expressing tumor cell …; assay: cell-based or functional assay; remark: listed apart in the source
rhesus CD30 ECD = biological target: T2, rhesus CD30 ECD (rhesus, UniProt P28908 19-379 (human entry)); assay: ELISA on rhesus CD30 ECD protein; member of the group by paragraph 437
T2 construct: Produced in house; also called recombinant rhesus CD30; rhesus CD30 protein
T2 chain: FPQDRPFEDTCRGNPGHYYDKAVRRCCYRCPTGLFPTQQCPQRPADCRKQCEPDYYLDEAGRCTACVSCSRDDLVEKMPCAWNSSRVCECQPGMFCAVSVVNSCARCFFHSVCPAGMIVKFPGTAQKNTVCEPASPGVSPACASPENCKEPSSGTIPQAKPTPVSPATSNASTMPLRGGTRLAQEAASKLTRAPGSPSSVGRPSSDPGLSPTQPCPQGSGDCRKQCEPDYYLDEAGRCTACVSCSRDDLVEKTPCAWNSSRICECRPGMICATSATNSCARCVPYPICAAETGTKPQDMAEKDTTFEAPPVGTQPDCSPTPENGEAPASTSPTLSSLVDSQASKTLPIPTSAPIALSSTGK

[5] = biological target: T3, recombinant human CD30 extra cellular domain (ECD) protein (human, UniProt P28908 19-379); assay: SPR Biacore T200, His-tagged sdAb/Fab captured, 100.0 nM human CD30 as analyte, single curve
T3 construct: Bought from R&D systems; also called rhCD30; human CD30 ECD
T3 sequence: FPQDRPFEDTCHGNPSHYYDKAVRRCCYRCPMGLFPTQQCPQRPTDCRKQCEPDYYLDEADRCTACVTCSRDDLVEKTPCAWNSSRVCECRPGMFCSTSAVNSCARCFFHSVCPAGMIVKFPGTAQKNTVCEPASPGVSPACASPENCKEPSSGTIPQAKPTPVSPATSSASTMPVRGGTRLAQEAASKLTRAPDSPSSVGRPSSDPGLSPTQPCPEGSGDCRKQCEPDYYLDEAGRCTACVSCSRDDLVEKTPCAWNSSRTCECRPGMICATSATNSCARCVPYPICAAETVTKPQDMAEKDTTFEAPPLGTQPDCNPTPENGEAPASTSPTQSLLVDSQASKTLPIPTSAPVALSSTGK
Protocol: Some of these unique binders were subjected to for further characterization by surface plasmon resonance (SPR) on a BIAcore T200 instrument (GE Healthcare). The experiment was carried out as follows. The crude sdAb/Fab proteins were captured through an affinity tag (6×Histidine tag) onto the sensorchip. High-concentration (100.0 nM) of human CD30 (R&D systems, Cat. #6126-CD) flowed over the sensorchip surface, and were allowed to bind the antibody fragments for 300 s followed by injection of the running buffer to allow dissociation of the complex. On-rate ([…] and off-rate (kd) were roughly calculated based on one association and dissociation curve, and were used to estimate the equilibrium dissociation constant (KD). 5F11 scFv (SEQ ID NO:216, prepared according to WO2017066122) was used as a positive control. Data were summarized in Table 3 below. The first 10 antibodies in Table 3 were sdAbs with amino acid sequence ID numbers summarized in Table 1, the last antibody was 5F11 scFv, and the remainings were human Fabs with CDR and scFv amino acid sequence ID numbers in Table 2.

B1: AS47863VH4bbz CAR (other)
chain: EVQLVESGGGLVQPGGSLRLSCAASGSTFGDSDMGWYRQAPGKGCELVSIISSDGRTYYVDSVKGRFTISQDNSKNTLYLQMNSLRAEDTAVYYCAADLRQYCRDGRCCGYWGQGTLVTVSSTTTPAPRPPTPAPTIASQPLSLRPEACRPAAGGAVHTRGLDFACDIYIWAPLAGTCGVLLLSLVITLYCKRGRKKLLYIFKQPFMRPVQTTQEEDGCSCRFPEEEEGGCELRVKFSRSADAPAYKQGQNQLYNELNLGRREEYDVLDKRRGRDPEMGGKPRRKNPQEGLYNELQKDKMAEAYSEIGMKGERRRGKGHDGLYQGLSTATKDTYDALHMQALPPR
In the case of B1, the “% H9 cell lysis E:T = 2:1 (LDH assay, CAR T cells)” value [1] is reported as 63% and the “% MJ cell lysis E:T = 1:1 (LDH assay, CAR T cells)” value [1] is reported as 57%.

B2: AS53574VH7-AS48542VH5bil-bbz CAR (other)
chain: EVQLVESGGGLVQPGGSLRLSCAASGYIYSSNCMGWFRQAPGKGREWVARIHTGSGSTYYADSVKGRFTISQDNSKNTLYLQMNSLRAEDTAVYDCAAGRVVLGAVVCTNEYWGQGTLVTVSSGGGGSGGGGSGGGGSEVQLVESGGGLVQPGGSLRLSCATSAFTFDGPDMAWYRQAPGKGCELVSIISADGRTYYADSVKGRFTISRDNSKNTVYLQMNSLRAEDTAVYYCALDPRKNCRGGYCCANWGQGTLVTVSSTTTPAPRPPTPAPTIASQPLSLRPEACRPAAGGAVHTRGLDFACDIYIWAPLAGTCGVLLLSLVITLYCKRGRKKLLYIFKQPFMRPVQTTQEEDGCSCRFPEEEEGGCELRVKFSRSADAPAYKQGQNQLYNELNLGRREEYDVLDKRRGRDPEMGGKPRRKNPQEGLYNELQKDKMAEAYSEIGMKGERRRGKGHDGLYQGLSTATKDTYDALHMQALPPR
In the case of B2, the “% H9 cell lysis E:T = 0.2:1 (FACS method, CAR T cells)” value [2] is reported as 29.8%, the “% MJ cell lysis E:T = 0.2:1 (FACS method, CAR T cells)” value [2] is reported as 50.5% and the “% H9 cell lysis E:T = 2:1 (LDH assay, CAR T cells)” value [3] is reported as 84%. The “% MJ cell lysis E:T = 1:1 (LDH assay, CAR T cells)” value [3] was 76%.

B3: AS53574VH7-AS47863VH4bil-bbz CAR (other)
chain: EVQLVESGGGLVQPGGSLRLSCAASGYIYSSNCMGWFRQAPGKGREWVARIHTGSGSTYYADSVKGRFTISQDNSKNTLYLQMNSLRAEDTAVYDCAAGRVVLGAVVCTNEYWGQGTLVTVSSGGGGSGGGGSGGGGSEVQLVESGGGLVQPGGSLRLSCAASGSTFGDSDMGWYRQAPGKGCELVSIISSDGRTYYVDSVKGRFTISQDNSKNTLYLQMNSLRAEDTAVYYCAADLRQYCRDGRCCGYWGQGTLVTVSSTTTPAPRPPTPAPTIASQPLSLRPEACRPAAGGAVHTRGLDFACDIYIWAPLAGTCGVLLLSLVITLYCKRGRKKLLYIFKQPFMRPVQTTQEEDGCSCRFPEEEEGGCELRVKFSRSADAPAYKQGQNQLYNELNLGRREEYDVLDKRRGRDPEMGGKPRRKNPQEGLYNELQKDKMAEAYSEIGMKGERRRGKGHDGLYQGLSTATKDTYDALHMQALPPR
For B3, the “% H9 cell lysis E:T = 0.2:1 (FACS method, CAR T cells)” value [2] was 41.6%, the “% MJ cell lysis E:T = 0.2:1 (FACS method, CAR T cells)” value [2] was 71.3% and the “% H9 cell lysis E:T = 2:1 (LDH assay, CAR T cells)” value [3] was 72%. The “% MJ cell lysis E:T = 1:1 (LDH assay, CAR T cells)” value [3] was 56%.

B4: AS48463VH4bbz CAR (other)
chain: EVQLLESGGGLVQPGGSLRLSCAASGFTFANSDMGWYRQAPGKGCELVSIISSHGGTTYYVDSVKGRFTISRDNSKNTLYLQMNSLRAEDTAVYYCVADPRSNCRGGYCCGYWGQGTLVTVSSTTTPAPRPPTPAPTIASQPLSLRPEACRPAAGGAVHTRGLDFACDIYIWAPLAGTCGVLLLSLVITLYCKRGRKKLLYIFKQPFMRPVQTTQEEDGCSCRFPEEEEGGCELRVKFSRSADAPAYKQGQNQLYNELNLGRREEYDVLDKRRGRDPEMGGKPRRKNPQEGLYNELQKDKMAEAYSEIGMKGERRRGKGHDGLYQGLSTATKDTYDALHMQALPPR
With B4 the “% H9 cell lysis E:T = 2:1 (LDH assay, CAR T cells)” value [1] was 64% and the “% MJ cell lysis E:T = 1:1 (LDH assay, CAR T cells)” value [1] was 67%.

B5: AS53574VH7-AS48463VH4bil-bbz CAR (other)
chain: EVQLVESGGGLVQPGGSLRLSCAASGYIYSSNCMGWFRQAPGKGREWVARIHTGSGSTYYADSVKGRFTISQDNSKNTLYLQMNSLRAEDTAVYDCAAGRVVLGAVVCTNEYWGQGTLVTVSSGGGGSGGGGSGGGGSEVQLLESGGGLVQPGGSLRLSCAASGFTFANSDMGWYRQAPGKGCELVSIISSHGGTTYYVDSVKGRFTISRDNSKNTLYLQMNSLRAEDTAVYYCVADPRSNCRGGYCCGYWGQGTLVTVSSTTTPAPRPPTPAPTIASQPLSLRPEACRPAAGGAVHTRGLDFACDIYIWAPLAGTCGVLLLSLVITLYCKRGRKKLLYIFKQPFMRPVQTTQEEDGCSCRFPEEEEGGCELRVKFSRSADAPAYKQGQNQLYNELNLGRREEYDVLDKRRGRDPEMGGKPRRKNPQEGLYNELQKDKMAEAYSEIGMKGERRRGKGHDGLYQGLSTATKDTYDALHMQALPPR
In the case of B5, the “% H9 cell lysis E:T = 0.2:1 (FACS method, CAR T cells)” value [2] is reported as 38.3%, the “% MJ cell lysis E:T = 0.2:1 (FACS method, CAR T cells)” value [2] is reported as 40.7% and the “% H9 cell lysis E:T = 2:1 (LDH assay, CAR T cells)” value [3] is reported as 78%. The “% MJ cell lysis E:T = 1:1 (LDH assay, CAR T cells)” value [3] was 59%.

B6: AS48542VH5bbz CAR (other)
chain: EVQLVESGGGLVQPGGSLRLSCATSAFTFDGPDMAWYRQAPGKGCELVSIISADGRTYYADSVKGRFTISRDNSKNTVYLQMNSLRAEDTAVYYCALDPRKNCRGGYCCANWGQGTLVTVSSTTTPAPRPPTPAPTIASQPLSLRPEACRPAAGGAVHTRGLDFACDIYIWAPLAGTCGVLLLSLVITLYCKRGRKKLLYIFKQPFMRPVQTTQEEDGCSCRFPEEEEGGCELRVKFSRSADAPAYKQGQNQLYNELNLGRREEYDVLDKRRGRDPEMGGKPRRKNPQEGLYNELQKDKMAEAYSEIGMKGERRRGKGHDGLYQGLSTATKDTYDALHMQALPPR
For B6, the “% H9 cell lysis E:T = 0.2:1 (FACS method, CAR T cells)” value [2] was 38%, the “% MJ cell lysis E:T = 0.2:1 (FACS method, CAR T cells)” value [2] was 58.6% and the “% H9 cell lysis E:T = 2:1 (LDH assay, CAR T cells)” value [3] was 62%. For the same binder, the “% MJ cell lysis E:T = 1:1 (LDH assay, CAR T cells)” value [3] was 65%, the “% H9 cell lysis E:T = 2:1 (LDH assay, CAR T cells)” value [1] was 62% and the “% MJ cell lysis E:T = 1:1 (LDH assay, CAR T cells)” value [1] was 65%.

B7: AS47863bbz CAR (other)
chain: QVQLEESGGGSVQAGETLRLSCTASGSTFGDSDMGWYRQAPGNACELVSIISSDGRTYYVDSVKGRFTISQDNAVSTVYLQMNSLKPEDTGVYYCAADLRQYCRDGRCCGYWGQGTQVTVSSTTTPAPRPPTPAPTIASQPLSLRPEACRPAAGGAVHTRGLDFACDIYIWAPLAGTCGVLLLSLVITLYCKRGRKKLLYIFKQPFMRPVQTTQEEDGCSCRFPEEEEGGCELRVKFSRSADAPAYKQGQNQLYNELNLGRREEYDVLDKRRGRDPEMGGKPRRKNPQEGLYNELQKDKMAEAYSEIGMKGERRRGKGHDGLYQGLSTATKDTYDALHMQALPPR
With B7 the “% MJ cell lysis E:T = 0.5:1 (LDH assay, CAR T cells)” value [4] was 65%.

B8: AS48481 sdAb (VHH)
VHH: EVQLVASGGGSVQAGETLRLSCTASGFTFADSAMGWYRKGPGNVCDLVAIIRTDGTTYYGDSAKGRFTISRDNAKSTLYLQMNSLKPEDTAVYFCAADRETSFIGGSWCVAKYWDQGTQVTVSS
notes: Camel sdAb
With B8 the binding result (rhesus CD30 ECD) was “binds”, the Kd [5] was 95 nM and the koff [5] was 0.0081 s⁻¹. The kon [5] was 86000 M⁻¹ s⁻¹ and the “rhCD30 Binding (RU)” value [5] was 26.3 RU.
